*1 amine or outer side, *2 acyl side, *3 side chain or, on linkers, in order; H or OH if unused. Bridges are numbered along the chain shown (N, C = ends). [ ]: non-standard residue; d: D form. (Pip)G = N-{3-[1'-(4'-methylpiperazinyl)]-propyl}-glycine, CN1CCN(CCCN(CC(=O)[*:2])[*:1])CC1; IsOrn = L-(N',N'-diisobutyl)-ornithine, CC(C)CN(CCC[C@H](N[*:1])C(=O)[*:2])CC(C)C; N(3-imidazol-1-ylpropyl)Gly = O=C(O)CNCCCn1ccnc1; Phe(4-F) = N[C@@H](Cc1ccc(F)cc1)C(=O)O; 2Nal = N[C@@H](Cc1ccc2ccccc2c1)C(=O)O; Cit = NC(=O)NCCC[C@H](N)C(=O)O; NMeK = CN[C@@H](CCCCN)C(=O)O; Dab = NCC[C@H](N)C(=O)O; Sar = CNCC(=O)O
B1: Example 131 (peptide)
peptide: cyclo(YRTCRG[dP]RR[2Nal]CY[Cit]K[dP]P)
modifications: disulfide 4-11
SMILES: C[C@@H](O)[C@@H]1NC(=O)[C@H](CCCNC(=N)N)NC(=O)[C@H](Cc2ccc(O)cc2)NC(=O)[C@@H]2CCCN2C(=O)[C@H]2CCCN2C(=O)[C@H](CCCCN)NC(=O)[C@H](CCCNC(N)=O)NC(=O)[C@H](Cc2ccc(O)cc2)NC(=O)[C@@H]2CSSC[C@H](NC1=O)C(=O)N[C@@H](CCCNC(=N)N)C(=O)NCC(=O)N1CCC[C@@H]1C(=O)N[C@@H](CCCNC(=N)N)C(=O)N[C@@H](CCCNC(=N)N)C(=O)N[C@@H](Cc1ccc3ccccc3c1)C(=O)N2
B2: Example 128 (peptide)
peptide: cyclo(YR[Cit]CRG[dP]RRWCY[Cit]K[dP]P)
modifications: disulfide 4-11
SMILES: N=C(N)NCCC[C@@H]1NC(=O)[C@@H]2CSSC[C@H](NC(=O)[C@H](Cc3c[nH]c4ccccc34)NC(=O)[C@H](CCCNC(=N)N)NC(=O)[C@H](CCCNC(=N)N)NC(=O)[C@H]3CCCN3C(=O)CNC1=O)C(=O)N[C@@H](Cc1ccc(O)cc1)C(=O)N[C@@H](CCCNC(N)=O)C(=O)N[C@@H](CCCCN)C(=O)N1CCC[C@@H]1C(=O)N1CCC[C@H]1C(=O)N[C@@H](Cc1ccc(O)cc1)C(=O)N[C@@H](CCCNC(=N)N)C(=O)N[C@@H](CCCNC(N)=O)C(=O)N2
B3: Example 126 (peptide)
peptide: cyclo(YR[Cit]CRG[dP]R[(Pip)G][2Nal]CY[Cit]K[dP]P)
modifications: disulfide 4-11
SMILES: CN1CCN(CCCN2CC(=O)N[C@@H](Cc3ccc4ccccc4c3)C(=O)N[C@H]3CSSC[C@H](NC(=O)[C@H](CCCNC(N)=O)NC(=O)[C@H](CCCNC(=N)N)NC(=O)[C@H](Cc4ccc(O)cc4)NC(=O)[C@@H]4CCCN4C(=O)[C@H]4CCCN4C(=O)[C@H](CCCCN)NC(=O)[C@H](CCCNC(N)=O)NC(=O)[C@H](Cc4ccc(O)cc4)NC3=O)C(=O)N[C@@H](CCCNC(=N)N)C(=O)NCC(=O)N3CCC[C@@H]3C(=O)N[C@@H](CCCNC(=N)N)C2=O)CC1
B4: Example 125 (peptide)
peptide: cyclo(YR[Cit]CRG[dP][N(3-imidazol-1-ylpropyl)Gly]R[2Nal]CY[Cit]K[dP]P)
modifications: disulfide 4-11
SMILES: N=C(N)NCCC[C@@H]1NC(=O)CN(CCCn2ccnc2)C(=O)[C@H]2CCCN2C(=O)CNC(=O)[C@H](CCCNC(=N)N)NC(=O)[C@@H]2CSSC[C@H](NC(=O)[C@H](Cc3ccc4ccccc4c3)NC1=O)C(=O)N[C@@H](Cc1ccc(O)cc1)C(=O)N[C@@H](CCCNC(N)=O)C(=O)N[C@@H](CCCCN)C(=O)N1CCC[C@@H]1C(=O)N1CCC[C@H]1C(=O)N[C@@H](Cc1ccc(O)cc1)C(=O)N[C@@H](CCCNC(=N)N)C(=O)N[C@@H](CCCNC(N)=O)C(=O)N2
B5: Example 122 (peptide)
peptide: cyclo(YR[Cit]CRG[dP][Phe(4-F)]RWCY[Cit]K[dP]P)
modifications: disulfide 4-11
SMILES: N=C(N)NCCC[C@@H]1NC(=O)[C@@H]2CSSC[C@H](NC(=O)[C@H](Cc3c[nH]c4ccccc34)NC(=O)[C@H](CCCNC(=N)N)NC(=O)[C@H](Cc3ccc(F)cc3)NC(=O)[C@H]3CCCN3C(=O)CNC1=O)C(=O)N[C@@H](Cc1ccc(O)cc1)C(=O)N[C@@H](CCCNC(N)=O)C(=O)N[C@@H](CCCCN)C(=O)N1CCC[C@@H]1C(=O)N1CCC[C@H]1C(=O)N[C@@H](Cc1ccc(O)cc1)C(=O)N[C@@H](CCCNC(=N)N)C(=O)N[C@@H](CCCNC(N)=O)C(=O)N2
B6: Example 134 (peptide)
peptide: cyclo(YR[Cit]CRG[dP][Dab]R[2Nal]CY[Cit]K[dP]P)
modifications: disulfide 4-11
SMILES: N=C(N)NCCC[C@@H]1NC(=O)[C@@H]2CSSC[C@H](NC(=O)[C@H](Cc3ccc4ccccc4c3)NC(=O)[C@H](CCCNC(=N)N)NC(=O)[C@H](CCN)NC(=O)[C@H]3CCCN3C(=O)CNC1=O)C(=O)N[C@@H](Cc1ccc(O)cc1)C(=O)N[C@@H](CCCNC(N)=O)C(=O)N[C@@H](CCCCN)C(=O)N1CCC[C@@H]1C(=O)N1CCC[C@H]1C(=O)N[C@@H](Cc1ccc(O)cc1)C(=O)N[C@@H](CCCNC(=N)N)C(=O)N[C@@H](CCCNC(N)=O)C(=O)N2
B7: Example 23 (peptide)
peptide: cyclo(YR[Cit]FRF[dP]RR[2Nal]VY[Cit]K[dP]P)
SMILES: CC(C)[C@@H]1NC(=O)[C@H](Cc2ccc3ccccc3c2)NC(=O)[C@H](CCCNC(=N)N)NC(=O)[C@H](CCCNC(=N)N)NC(=O)[C@H]2CCCN2C(=O)[C@H](Cc2ccccc2)NC(=O)[C@H](CCCNC(=N)N)NC(=O)[C@H](Cc2ccccc2)NC(=O)[C@H](CCCNC(N)=O)NC(=O)[C@H](CCCNC(=N)N)NC(=O)[C@H](Cc2ccc(O)cc2)NC(=O)[C@@H]2CCCN2C(=O)[C@H]2CCCN2C(=O)[C@H](CCCCN)NC(=O)[C@H](CCCNC(N)=O)NC(=O)[C@H](Cc2ccc(O)cc2)NC1=O
B8: Example 127 (peptide)
peptide: cyclo(YR[Cit]CRG[dP]RR[2Nal]CY[Cit][NMeK][dP]P)
modifications: disulfide 4-11
SMILES: CN1C(=O)[C@H](CCCNC(N)=O)NC(=O)[C@H](Cc2ccc(O)cc2)NC(=O)[C@@H]2CSSC[C@H](NC(=O)[C@H](CCCNC(N)=O)NC(=O)[C@H](CCCNC(=N)N)NC(=O)[C@H](Cc3ccc(O)cc3)NC(=O)[C@@H]3CCCN3C(=O)[C@H]3CCCN3C(=O)[C@@H]1CCCCN)C(=O)N[C@@H](CCCNC(=N)N)C(=O)NCC(=O)N1CCC[C@@H]1C(=O)N[C@@H](CCCNC(=N)N)C(=O)N[C@@H](CCCNC(=N)N)C(=O)N[C@@H](Cc1ccc3ccccc3c1)C(=O)N2
B9: Example 124 (peptide)
peptide: cyclo(YR[Cit]CRG[dP][IsOrn]R[2Nal]CY[Cit]K[dP]P)
modifications: disulfide 4-11
SMILES: CC(C)CN(CCC[C@@H]1NC(=O)[C@H]2CCCN2C(=O)CNC(=O)[C@H](CCCNC(=N)N)NC(=O)[C@@H]2CSSC[C@H](NC(=O)[C@H](Cc3ccc4ccccc4c3)NC(=O)[C@H](CCCNC(=N)N)NC1=O)C(=O)N[C@@H](Cc1ccc(O)cc1)C(=O)N[C@@H](CCCNC(N)=O)C(=O)N[C@@H](CCCCN)C(=O)N1CCC[C@@H]1C(=O)N1CCC[C@H]1C(=O)N[C@@H](Cc1ccc(O)cc1)C(=O)N[C@@H](CCCNC(=N)N)C(=O)N[C@@H](CCCNC(N)=O)C(=O)N2)CC(C)C
B10: Example 132 (peptide)
peptide: cyclo(YR[Cit]CRG[dP]RR[2Nal]CYTK[dP]P)
modifications: disulfide 4-11
SMILES: C[C@@H](O)[C@@H]1NC(=O)[C@H](Cc2ccc(O)cc2)NC(=O)[C@@H]2CSSC[C@H](NC(=O)[C@H](CCCNC(N)=O)NC(=O)[C@H](CCCNC(=N)N)NC(=O)[C@H](Cc3ccc(O)cc3)NC(=O)[C@@H]3CCCN3C(=O)[C@H]3CCCN3C(=O)[C@H](CCCCN)NC1=O)C(=O)N[C@@H](CCCNC(=N)N)C(=O)NCC(=O)N1CCC[C@@H]1C(=O)N[C@@H](CCCNC(=N)N)C(=O)N[C@@H](CCCNC(=N)N)C(=O)N[C@@H](Cc1ccc3ccccc3c1)C(=O)N2
B11: Example 129 (peptide)
peptide: cyclo(YR[Cit]CRG[dP]RR[2Nal]CY[Sar]K[dP]P)
modifications: disulfide 4-11
SMILES: CN1CC(=O)N[C@@H](CCCCN)C(=O)N2CCC[C@@H]2C(=O)N2CCC[C@H]2C(=O)N[C@@H](Cc2ccc(O)cc2)C(=O)N[C@@H](CCCNC(=N)N)C(=O)N[C@@H](CCCNC(N)=O)C(=O)N[C@H]2CSSC[C@H](NC(=O)[C@H](Cc3ccc4ccccc4c3)NC(=O)[C@H](CCCNC(=N)N)NC(=O)[C@H](CCCNC(=N)N)NC(=O)[C@H]3CCCN3C(=O)CNC(=O)[C@H](CCCNC(=N)N)NC2=O)C(=O)N[C@@H](Cc2ccc(O)cc2)C1=O
B12: Example 133 (peptide)
peptide: cyclo(YR[Cit]CRG[dP]RR[2Nal]CYTK[dP]P)
modifications: disulfide 4-11
SMILES: C[C@@H](O)[C@@H]1NC(=O)[C@H](Cc2ccc(O)cc2)NC(=O)[C@@H]2CSSC[C@H](NC(=O)[C@H](CCCNC(N)=O)NC(=O)[C@H](CCCNC(=N)N)NC(=O)[C@H](Cc3ccc(O)cc3)NC(=O)[C@@H]3CCCN3C(=O)[C@H]3CCCN3C(=O)[C@H](CCCCN)NC1=O)C(=O)N[C@@H](CCCNC(=N)N)C(=O)NCC(=O)N1CCC[C@@H]1C(=O)N[C@@H](CCCNC(=N)N)C(=O)N[C@@H](CCCNC(=N)N)C(=O)N[C@@H](Cc1ccc3ccccc3c1)C(=O)N2
B13: Example 130 (peptide)
peptide: cyclo(YRQCRG[dP]RR[2Nal]CY[Cit]K[dP]P)
modifications: disulfide 4-11
SMILES: N=C(N)NCCC[C@@H]1NC(=O)[C@@H]2CSSC[C@H](NC(=O)[C@H](Cc3ccc4ccccc4c3)NC(=O)[C@H](CCCNC(=N)N)NC(=O)[C@H](CCCNC(=N)N)NC(=O)[C@H]3CCCN3C(=O)CNC1=O)C(=O)N[C@@H](Cc1ccc(O)cc1)C(=O)N[C@@H](CCCNC(N)=O)C(=O)N[C@@H](CCCCN)C(=O)N1CCC[C@@H]1C(=O)N1CCC[C@H]1C(=O)N[C@@H](Cc1ccc(O)cc1)C(=O)N[C@@H](CCCNC(=N)N)C(=O)N[C@@H](CCC(N)=O)C(=O)N2
B14: Example 123 (peptide)
peptide: cyclo(YR[Cit]CRG[dP]RRWCY[Cit]K[dP]P)
modifications: disulfide 4-11
SMILES: N=C(N)NCCC[C@@H]1NC(=O)[C@@H]2CSSC[C@H](NC(=O)[C@H](Cc3c[nH]c4ccccc34)NC(=O)[C@H](CCCNC(=N)N)NC(=O)[C@H](CCCNC(=N)N)NC(=O)[C@H]3CCCN3C(=O)CNC1=O)C(=O)N[C@@H](Cc1ccc(O)cc1)C(=O)N[C@@H](CCCNC(N)=O)C(=O)N[C@@H](CCCCN)C(=O)N1CCC[C@@H]1C(=O)N1CCC[C@H]1C(=O)N[C@@H](Cc1ccc(O)cc1)C(=O)N[C@@H](CCCNC(=N)N)C(=O)N[C@@H](CCCNC(N)=O)C(=O)N2

Molecular target: human CXCR4 (human, UniProt P61073 1-352)
Experiment: cell-based or functional assay

Sequence of human CXCR4 (P61073 whole entry): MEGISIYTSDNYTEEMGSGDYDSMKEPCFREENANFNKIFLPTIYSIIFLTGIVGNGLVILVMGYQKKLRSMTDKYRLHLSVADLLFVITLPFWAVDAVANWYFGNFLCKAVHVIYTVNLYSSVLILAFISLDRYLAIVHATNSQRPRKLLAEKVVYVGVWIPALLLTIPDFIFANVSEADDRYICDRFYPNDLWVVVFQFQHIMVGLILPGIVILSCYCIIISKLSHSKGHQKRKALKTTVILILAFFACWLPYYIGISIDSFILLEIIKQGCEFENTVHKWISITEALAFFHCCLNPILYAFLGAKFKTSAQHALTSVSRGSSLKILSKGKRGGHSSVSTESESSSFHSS

| IC50 (nM) Ca2+ assay (method 2) [nM] | IC50 (nM) Ca2+ assay (method 1) [nM] | Binder |
| --- | --- | --- |
| 2.4 | – | B1 |
| 4.5 | – | B2 |
| 19.5 | – | B3 |
| 330 | – | B4 |
| 8.8 | – | B5 |
| 1.7 | – | B6 |
| – | 1550 | B7 |
| 52.2 | – | B8 |
| 5.9 | – | B9 |
| 1.9 | – | B10 |
| 10.9 | – | B11 |
| 5.3 | – | B12 |
| 4.1 | – | B13 |
| 10 | – | B14 |
